Results on one molecule are retold here after PMC3027617 (2011).

As a reminder, the koff is a measure of how fast the partners let go of each other. Lower therefore signals slow dissociation.

In this test the target is 2F5 epitope scaffold ES1. Nature of the test: SPR.

B1: 2F5 monoclonal antibody (antibody, V domains shown)
VH: RITLKESGPPLVKPTQTLTLTCSFSGFSLSDFGVGVGWIRQPPGKALEWLAIIYSDDDKRYSPSLNTRLTITKDTSKNQVVLVMTRVSPVDTATYFCAHRRGPTTLFGVPIARGPVNAMDVWGQGITVTISS
VL: ALQLTQSPSSLSASVGDRITITCRASQGVTSALAWYRQKPGSPPQLLIYDASSLESGVPSRFSGSGSGTEFTLTISTLRPEDFATYYCQQLHFYPHTFGGGTRVDVR
In the case of B1, the koff was found to be 0.00109 s⁻¹.
